Patent US20250250357A1 (NANJING ZAIMING PHARMACEUTICAL, published 2025)

T1: human MSLN-R1-his protein (human, UniProt Q13421 296-390)
T1 construct: also called hMSLN-R1-his; human MSLN-R1 protein; not shown: His tag
T1 chain: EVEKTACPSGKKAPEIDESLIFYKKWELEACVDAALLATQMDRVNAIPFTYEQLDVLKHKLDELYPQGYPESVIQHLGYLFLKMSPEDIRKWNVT


Assays:
[1] = biological target: T2, human MSLN-FL-his protein (human, UniProt Q13421 296-580); assay: competitive ELISA; coated 2ug/ml Tab108 (R3)
T2 construct: made in HEK293E cells, purified on nickel column; also called hMSLN-FL-his; human MSLN full-length protein; not shown: His tag
T2 sequence (Q13421 other isoform, or with tags, fused parts or gaps): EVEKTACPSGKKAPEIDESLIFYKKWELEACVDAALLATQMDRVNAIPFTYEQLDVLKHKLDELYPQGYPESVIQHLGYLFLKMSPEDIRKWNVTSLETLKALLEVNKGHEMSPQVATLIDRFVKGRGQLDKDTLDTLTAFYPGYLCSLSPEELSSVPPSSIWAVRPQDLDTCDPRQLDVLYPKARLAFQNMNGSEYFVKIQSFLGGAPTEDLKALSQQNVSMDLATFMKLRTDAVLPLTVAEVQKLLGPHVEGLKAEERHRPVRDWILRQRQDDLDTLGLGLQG

[2] = biological target: T2, human MSLN-FL-his protein; assay: competitive ELISA; coated 2ug/ml F3.80.22
Description: (§1) In order to identify antigen-binding sites of antibodies, MSLN chimeric antibodies were grouped using competitive ELISA.
(§2) The chimeric antibodies were diluted to 2 μg/mL with PBS and allowed to coat 96-well high-adsorption ELISA plates at 50 μL/well. After the plates were coated at 4° C. overnight, 250 μL of a blocking buffer (PBS containing 2% (w/w) BSA) was added for two hours of blocking at room temperature. 40 μg/mL of the antibodies to be tested were added, and then the human MSLN-FL-His protein with an EC₈₀ concentration corresponding to each of the antibodies to be tested was added for incubation for 2 h. The plates were washed 5 times with PBS, an HRP-labeled anti-His secondary antibody (purchased from Genescript, Cat. No. A00612) was then added for incubation for 1 h, and the plates were washed 5 times again. A TMB substrate was added at 50 μL/well, and after 10 minutes of incubation at room temperature, a stop solution (1.0 M HCl) was added at 50 μL/well. OD₄₅₀ nm values were read using an ELISA plate reader (Insight, purchased from PerkinElmer), and the competition rate between the antibodies was calculated according to the OD₄₅₀ nm values using a formula.

[3] = biological target: T2, human MSLN-FL-his protein; assay: competitive ELISA; coated 2ug/ml F4-127.10
Description: as §1, §2

[4] = biological target: T2, human MSLN-FL-his protein; assay: competitive ELISA; coated 2ug/ml F3.23.1
Description: as §1, §2

[5] = biological target: T2, human MSLN-FL-his protein; assay: competitive ELISA; coated 2ug/ml F3.45.21
Description: as §1, §2

[6] = biological target: T2, human MSLN-FL-his protein; assay: SPR (Biacore), antibody captured on Protein A chip;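 note: measured at 25 °C, analyte injected 240 s in five twofold dilutions from 200 nM, dissociation up to 600 s, double-referenced, fitted with Langmuir 1:1 model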
Description: The flow cell was set at 25° C. The sample block was set at 16° C. Both were pretreated with the running buffer. In each cycle, first, the antibody to be tested was captured using the Protein A chip, and then a single concentration of human MSLN-FL-his protein was injected. […] The association was determined by injecting different concentrations of human MSLN-FL-his in solution for 240 s on end, wherein the flow rate was 30 μL/min, and the protein was diluted in a 1:1 dilution ratio from 200 nM (see detailed results for actual concentrations tested) to obtain 5 concentrations in total. The dissociation phase was monitored for up to 600 s and triggered by switching from the sample solution to the running buffer. The surface was regenerated by washing with 10 mM glycine solution (pH 1.5) at a flow rate of 30 μL/min for 30 s. The difference in bulk refractive index was corrected by subtracting the responses obtained from the goat anti-human Fc surface. Blank injections were also subtracted (=double reference). To calculate the apparent KD and other kinetic parameters, the Langmuir 1:1 model was used.

[7] = biological target: T2, human MSLN-FL-his protein; assay: competitive ELISA; coated 2ug/ml F3.74.20
Description: as §1, §2

[8] = biological target: T2, human MSLN-FL-his protein; assay: competitive ELISA; coated 2ug/ml Tab142 (R1)
Description: as §1, §2

[9] = biological target: T2, human MSLN-FL-his protein; assay: competitive ELISA; coated 2ug/ml F3.51.8
Description: as §1, §2

[10] = biological target: T1, human MSLN-R1-his protein; assay: ELISA, coated antigen; antibody 100 nM
Description: (§3) The plate was sealed with a plastic film and incubated at 4° C. overnight. The next day, the plate was washed twice with PBST, and a blocking buffer [PBS+2% (w/w) BSA] was added for blocking at room temperature for 2 h. The blocking buffer was discarded, and a chimeric antibody or negative control antibody serially diluted from 100 nM was added at 50 μL/well. After incubation at 37° C. for 2 h, the plate was washed 3 times with PBST. […] After incubation at 37° C. for 2 h, the plate was washed 5 times with PBST. A TMB substrate was added at 50 μL/well for incubation at room temperature for 5-10 min, and then a stop solution (1.0 N HCl) was added at 50 μL/well.

[11] = biological target: T3, human MSLN-FL-his protein (human, UniProt Q13421 296-580); assay: ELISA, coated antigen; antibody 0.01 nM
T3 construct: also called hMSLN-FL-his; human MSLN full-length protein; not shown: His tag
Target sequence in this assay (Q13421 other isoform, or with tags, fused parts or gaps): as above

[12] = biological target: T3, human MSLN-FL-his protein; assay: ELISA, coated antigen; antibody 1 nM
Target sequence in this assay (Q13421 other isoform, or with tags, fused parts or gaps): as above
Description: as §3

[13] = biological target: T1, human MSLN-R1-his protein; assay: ELISA, coated antigen; antibody 10 nM
Description: as §3

[14] = biological target: T3, human MSLN-FL-his protein; assay: ELISA, coated antigen; antibody 100 nM
Target sequence in this assay (Q13421 other isoform, or with tags, fused parts or gaps): as above
Description: as §3

[15] = biological target: T1, human MSLN-R1-his protein; assay: ELISA, coated antigen; antibody 0.001 nM
Description: as §3

[16] = biological target: T1, human MSLN-R1-his protein; assay: ELISA, coated antigen; antibody 0.1 nM
Description: as §3

[17] = biological target: T1, human MSLN-R1-his protein; assay: ELISA, coated antigen; no antibody (blank, column 'none')
Description: as §3

[18] = biological target: T3, human MSLN-FL-his protein; assay: as above
Description: as §3

[19] = biological target: T3, human MSLN-FL-his protein; assay: ELISA, coated antigen; antibody 0.1 nM
Target sequence in this assay (Q13421 other isoform, or with tags, fused parts or gaps): as above
Description: as §3

[20] = biological target: T1, human MSLN-R1-his protein; assay: ELISA, coated antigen; antibody 0.01 nM
Description: as §3

[21] = biological target: T3, human MSLN-FL-his protein; assay: ELISA, coated antigen; antibody 10 nM
Target sequence in this assay (Q13421 other isoform, or with tags, fused parts or gaps): as above
Description: as §3

[22] = biological target: T1, human MSLN-R1-his protein; assay: ELISA, coated antigen; antibody 0.0001 nM
Description: as §3

[23] = biological target: T1, human MSLN-R1-his protein; assay: ELISA, coated antigen; antibody 1 nM
Description: as §3

[24] = biological target: T3, human MSLN-FL-his protein; assay: ELISA, coated antigen; antibody 0.001 nM
Description: as §3

[25] = biological target: T3, human MSLN-FL-his protein; assay: ELISA, coated antigen; antibody 0.0001 nM
Description: as §3

competition rate [1] [%]	competition rate [2] [%]	competition rate [3] [%]	competition rate [4] [%]	competition rate [5] [%]	Kd [6] [µM]	koff [6] [s⁻¹]	kon [6] [M⁻¹ s⁻¹]	competition rate [7] [%]	competition rate [8] [%]	competition rate [9] [%]	OD450 [10]	OD450 [11]	OD450 [12]	OD450 [13]	OD450 [14]	OD450 [15]	OD450 [16]	OD450 [17]	OD450 [18]	Binder	also measured
34	-15	33	100	94	0.00492	5.04e-05	10300	98	-28	96	–	–	–	–	–	–	–	–	–	S009-F3.74.20 (antibody, human IgG1, kappa, V domains shown, human-murine chimeric antibody, human IgG1/kappa constant regions) VH: RVQLQQSGAELVRPGASVTLSCKASGYTFTDSEMHWVKQTPVHGLEWIGAIDPEIDGTAYNQNFRDKAILTADKSSSTAYMELRSLTSEDSAVYYCTTYFGSGYGYFDVWGTGTTVTVSS VL: DVVMTQTPLSLSVSLGDQASISCRSSQSLVYSNGNTYLHWFLQKPGQSPKLLIYKVSNRFSGVPDRFSGSGSGTDFTLKINRVEAEDLGVYFCSQSTHIPFTFGAGTKLELKR	–
35	63	-22	-109	-67	0.151	0.000332	2200	-12	81	43	–	–	–	–	–	–	–	–	–	S009-F3.80.22 (antibody, human IgG1, kappa, V domains shown, human-murine chimeric antibody, human IgG1/kappa constant regions) VH: QVQLQQSGAELVRPGASVTLSCKASGYTFTDYEIHWVKQTPVHGLEWIGAFDPEIGGSAYNQKFKDRATLTADKSSSTAYMELHSLTAEDSAVYYCTDYYGSSSGYFDVWGTGTTVTVSS VL: DVVMTQTPLSLPVSLGDQASISCRSSQSLEHNNGNTYLHWFLHKPGQSPKLLIYKVSNRFSGVPDRFSGSGSGTDFTLKISRVEAEDLGVYFCSQSTHVPFTFGSGTKLEIKR	–
-37	-5	16	88	84	0.171	0.000433	2530	91	-27	87	–	–	–	–	–	–	–	–	–	S009-F4-127.10 (antibody, human IgG1, kappa, V domains shown, human-murine chimeric antibody, human IgG1/kappa constant regions) VH: EVQLQQSGPVLVKPGASVKMSCKASGYTFTDYYMNWVKQSHGKSPEWIGVINPYNDVISYNQKFKGKATLTVDKSSSTAYMELNSLTSEDSAVYYCANYGSSYYAMDYWGQGTSVTVSS VL: DVVMTQTPLSLSVSLGDQASISCRSSQSLVHSNGNTYLQWSLQKPGQSPNLLIYKVSNRFSGVPDRFSGSGSGTDFTLKISRVEAEDLGVYFCSQTTHVPFTFGGGTKLEIRR	–
46	-17	78	101	98	0.142	0.00035	2470	101	-34	102	–	–	–	–	–	–	–	–	–	S009-F3.51.8 (antibody, human IgG1, kappa, V domains shown, human-murine chimeric antibody, human IgG1/kappa constant regions) VH: QVQLQQSGAELVRPGASVTLSCKASGYTFTDYEMHWVKQTPVHGLEWIGGFDPETGGTAHNQKFKGKAILTADKSSSTAYMELRSLTSEDSAVYYCSNYGSIWGDCWGQGTSVTVSS VL: not shown	–

Second part, the binder before the results:

Binder	competition rate [1] [%]	competition rate [2] [%]	competition rate [3] [%]	competition rate [4] [%]	competition rate [5] [%]	Kd [6] [µM]	koff [6] [s⁻¹]	kon [6] [M⁻¹ s⁻¹]	competition rate [7] [%]	competition rate [8] [%]	competition rate [9] [%]	OD450 [10]	OD450 [11]	OD450 [12]	OD450 [13]	OD450 [14]	OD450 [15]	OD450 [16]	OD450 [17]	OD450 [18]	also measured
S009-F3.45.21 (antibody, human IgG1, kappa, V domains shown, human-murine chimeric antibody, human IgG1/kappa constant regions) VH: DVQLQESGPGLVKPSQSLSLTCSVTGDSITSGYYWNWIRQFPGNKLEWMGFIRFDGTNNYNPSLKNRISITRDTSKNQFFLKLNSVTTEDTATYYCAREGSYAPAWFAYWGQGTLVTVSA VL: QIVLTQSPAIMSASPGEKVTMTCSASSSLSYMYWYQQKPGSSPRLLIYDTSNLASGVPVRFSGSGSGTSYSLTISRMEAEDAATYYCQQWSSYPPTFGGGTKLEIKR	32	-26	37	99	92	0.0015	0.00083	552000	96	-38	96	–	–	–	–	–	–	–	–	–	–
S009-F3.23.1 (antibody, human IgG1, kappa, V domains shown, human-murine chimeric antibody, human IgG1/kappa constant regions) VH: QVQLQQSGADLVRPGASVTLSCKASGYTFTDYEMHWVKQTPVHGLEWIGAIDPETGDTVYNQNFKGKAILTADKSSSTAYMELRSLTSEDSAVYYCTRYGYDWGWGQGTTLTVSS VL: not shown	35	-36	31	95	89	0.689	0.000703	–	93	-25	94	–	–	–	–	–	–	–	–	–	–
S009-F1.57.1 human-murine chimeric antibody (antibody, human IgG1, kappa, V domains shown, Chimeric IgG1/kappa) VH: EAQLQQSGAVFVKPGASVKLSCTASGFSSKDIFLHWVKQRPEQGLEWIGRIDPASDNTIYDPKFQDRATITSDRSSNTAYLQFSSLTSEDTAVYFCLYFDFWGQGTTLTVSS VL: DIVMTQATPSISVTPGESVSISCRSSESLLHSNGNTYLYWFLQRPGQSPQLLIYRMSNLASGVPDRFSVSGSGTAFTLRISRVEAEDVGVYYCMQHLEYPLTFGAGTKLELKR	–	–	–	–	–	–	–	–	–	–	–	0.07	0.15	2.03	0.04	2.51	0.04	0.03	0.05	0.05	OD450 [19]: 0.82; OD450 [20]: 0.05; OD450 [21]: 2.42; OD450 [22]: 0.04; OD450 [23]: 0.03; OD450 [24]: 0.06; OD450 [25]: 0.05
S009-F1.62.9 human-murine chimeric antibody (antibody, human IgG1, kappa, V domains shown, Chimeric IgG1/kappa) VH: EVQLQQSGADLVKPGASVKLSCTVFGLNFKDTFMHWVRQRPEQGLEWIGRIDPANDNSIYGPKFQDKATITADTSSNTAYLHLSSLTSEDTAVYYCLYFDNWGHGTTLTVSS VL: DIVMTQAASSEPVTPGESVSISCRSDKSLLHSNGHNYLYWFLQRPGQSPHLLIYRMSNLASGVPDRFSGSGSGTAFTLRISRVEAEDVGVYYCMQHLEYPLTFGAGTKLELKR	–	–	–	–	–	–	–	–	–	–	–	0.06	0.48	2.35	0.04	2.61	0.04	0.04	0.05	0.05	OD450 [19]: 1.79; OD450 [20]: 0.05; OD450 [21]: 2.59; OD450 [22]: 0.04; OD450 [23]: 0.04; OD450 [24]: 0.11; OD450 [25]: 0.06
S009-F1.59.1 human-murine chimeric antibody (antibody, human IgG1, kappa, V domains shown, Chimeric IgG1/kappa) VH: EVKLEGSGGGLVQPGGSMMLSCVATGFTFSSYWMNWVRQSPDRGLEWVAEIRLKSNGFAAFYAESVKGRFTISRDDSKSSVYLQMNNLRTEDTGIYYCTYFVHWGQGILVTVSE VL: DIVLTQSPTSLAVSLGQRATISCRTSESVEYFGTILIQWYQQKPGQPPKLLIFGASNVESGVPARFSGSGSGTDFSLNIHPVEEEDIAMYFCQQNRKVPYTFGGGTTLELKR	–	–	–	–	–	–	–	–	–	–	–	0.06	0.47	2.31	0.04	2.65	0.04	0.03	0.05	0.05	OD450 [19]: 1.76; OD450 [20]: 0.05; OD450 [21]: 2.38; OD450 [22]: 0.03; OD450 [23]: 0.03; OD450 [24]: 0.1; OD450 [25]: 0.06
